Drawing on article PMC2783259, this text covers percent inhibition of rosette formation and percent rosette formation for four substances.

In test [1] the target is human FcγRIA (CD64) co-expressed with the common γ chain on CV-1 cells (human) (UniProt P12314). Kind of test: inhibition of rosette formation.
Test [2] has as its target human FcγRIIA (CD32), R131 allotype, on CV-1 cells (human). The test is described as follows: inhibition of rosette formation.
The target in test [3] is human FcγRIA (CD64) co-expressed with the common γ chain on CV-1 cells (human) (UniProt P12314). Kind of test: inhibition of rosette formation. This is another data set of the same source.
In test [4] the target is human FcγRIIA (CD32), H131 allotype, on CV-1 cells (human) (UniProt P12318). The test is described as follows: inhibition of rosette formation.
For test [5] the target is unchanged. Kind of test: inhibition of rosette formation. This is another data set of the same source.
For test [6], the target named is The FcγRIA and FcγRIIA transfectants. The test is described as follows: rosette formation.

Where two headings read alike, the source gives them in different places. A value given as a limit tells only on which side of the number the result lay.

In the case of “human IgG1 myeloma protein, heat-aggregated (antibody)”, the percent inhibition of rosette formation in test [1] and in test [2] was greater than 90% each time.
For “human IgG2 myeloma protein, heat-aggregated (antibody)”, the percent inhibition of rosette formation in test [3] came to 20%; in test [4] it was 65%; in test [5], 60%.
With “human IgG3 myeloma protein, heat-aggregated (antibody)”, the percent inhibition of rosette formation in test [1] and in test [2] was greater than 90% each time.
In the case of “rabbit IgG on opsonized sheep red blood cells (SRBC) (antibody)”, the percent rosette formation in test [6] lay in the range of 82 to 97%.
